In patent US20140073563A1:

Biological target: human FGFR1c together with human beta-Klotho (KLB) (human), P11362
Assay: cell-based or functional assay

human FGFR1c together with human beta-Klotho (KLB) (human), P11362, sequence (P11362 22-822, chain 1 of 2): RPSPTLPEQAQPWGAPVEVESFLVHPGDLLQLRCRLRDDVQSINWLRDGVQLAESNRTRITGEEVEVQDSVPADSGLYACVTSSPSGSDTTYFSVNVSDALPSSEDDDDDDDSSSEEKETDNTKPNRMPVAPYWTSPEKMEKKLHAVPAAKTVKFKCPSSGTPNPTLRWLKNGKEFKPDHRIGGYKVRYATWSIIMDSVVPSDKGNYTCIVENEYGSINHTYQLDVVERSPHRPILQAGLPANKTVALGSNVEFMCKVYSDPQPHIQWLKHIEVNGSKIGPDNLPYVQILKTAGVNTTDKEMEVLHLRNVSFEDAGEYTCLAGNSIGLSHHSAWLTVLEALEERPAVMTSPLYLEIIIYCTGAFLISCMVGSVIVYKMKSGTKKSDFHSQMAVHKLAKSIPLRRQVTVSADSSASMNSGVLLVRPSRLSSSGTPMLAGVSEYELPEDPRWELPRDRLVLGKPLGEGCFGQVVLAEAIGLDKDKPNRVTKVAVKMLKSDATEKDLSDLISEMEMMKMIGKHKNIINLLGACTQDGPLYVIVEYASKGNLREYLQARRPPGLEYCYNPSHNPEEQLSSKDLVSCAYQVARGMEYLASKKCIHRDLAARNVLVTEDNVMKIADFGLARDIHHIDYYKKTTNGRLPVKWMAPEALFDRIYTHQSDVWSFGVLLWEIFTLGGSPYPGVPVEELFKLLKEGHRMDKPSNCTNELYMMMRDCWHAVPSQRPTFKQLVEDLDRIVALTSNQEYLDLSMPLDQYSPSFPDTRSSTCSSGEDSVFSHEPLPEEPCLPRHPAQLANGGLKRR
human FGFR1c together with human beta-Klotho (KLB) (human), P11362, sequence (Q86Z14 whole entry, chain 2 of 2, further chain): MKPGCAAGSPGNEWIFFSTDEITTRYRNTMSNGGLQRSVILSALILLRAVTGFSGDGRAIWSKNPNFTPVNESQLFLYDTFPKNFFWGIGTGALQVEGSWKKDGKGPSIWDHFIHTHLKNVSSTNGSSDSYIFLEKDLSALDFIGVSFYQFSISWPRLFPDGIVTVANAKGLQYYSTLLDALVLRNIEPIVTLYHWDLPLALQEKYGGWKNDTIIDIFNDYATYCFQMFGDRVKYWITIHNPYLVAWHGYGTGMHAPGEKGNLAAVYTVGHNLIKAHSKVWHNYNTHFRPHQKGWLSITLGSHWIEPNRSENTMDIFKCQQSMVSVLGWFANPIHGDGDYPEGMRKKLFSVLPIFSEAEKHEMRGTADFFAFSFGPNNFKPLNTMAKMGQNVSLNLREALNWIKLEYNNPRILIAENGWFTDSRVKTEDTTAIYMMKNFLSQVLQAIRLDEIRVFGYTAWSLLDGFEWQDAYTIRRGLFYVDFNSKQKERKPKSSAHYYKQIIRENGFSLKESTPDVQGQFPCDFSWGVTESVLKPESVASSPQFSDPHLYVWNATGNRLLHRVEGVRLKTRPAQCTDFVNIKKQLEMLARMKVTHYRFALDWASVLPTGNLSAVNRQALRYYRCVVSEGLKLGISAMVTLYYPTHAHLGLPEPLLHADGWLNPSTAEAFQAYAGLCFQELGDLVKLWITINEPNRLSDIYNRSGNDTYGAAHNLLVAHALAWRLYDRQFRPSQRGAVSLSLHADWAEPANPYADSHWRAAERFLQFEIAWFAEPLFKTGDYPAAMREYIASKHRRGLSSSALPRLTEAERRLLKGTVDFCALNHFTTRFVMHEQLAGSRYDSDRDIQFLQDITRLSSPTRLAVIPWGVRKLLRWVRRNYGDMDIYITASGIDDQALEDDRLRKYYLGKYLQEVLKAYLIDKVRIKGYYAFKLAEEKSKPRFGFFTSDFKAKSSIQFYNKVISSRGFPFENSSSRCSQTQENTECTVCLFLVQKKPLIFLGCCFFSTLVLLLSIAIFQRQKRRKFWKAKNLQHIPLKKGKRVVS

B1: FGF21 wild type, Q9NSA1 29-209 (ligand)
chain: HPIPDSSPLLQPGGQVRQRYLYTDDAQQTEAHLEIREDGTVGGAADQSPESLLQLKALKPGVIQILGVKTSRFLCQRPDGALYGSLHFDPEACSFRELLLEDGYNVYQSEAHGLPLHLPGNKSPHRDPAPRGPARFLPLPGLPPAPPEPPGILAPQPPDVGSSDPLSMVGPSQGRSPSYAS
For B1, the pERK ICW EC50 was 0.135 nmol/L and the pFGFR ICW EC50 was 4.3 nmol/L.
